Test results reported in doi:10.1101/2024.06.07.597973.

Biological target: human melanocortin 4 receptor (MC4R) (human) (UniProt P32245)
Experiment: radioligand binding

UniProt P32245, sequence (P32245 whole entry): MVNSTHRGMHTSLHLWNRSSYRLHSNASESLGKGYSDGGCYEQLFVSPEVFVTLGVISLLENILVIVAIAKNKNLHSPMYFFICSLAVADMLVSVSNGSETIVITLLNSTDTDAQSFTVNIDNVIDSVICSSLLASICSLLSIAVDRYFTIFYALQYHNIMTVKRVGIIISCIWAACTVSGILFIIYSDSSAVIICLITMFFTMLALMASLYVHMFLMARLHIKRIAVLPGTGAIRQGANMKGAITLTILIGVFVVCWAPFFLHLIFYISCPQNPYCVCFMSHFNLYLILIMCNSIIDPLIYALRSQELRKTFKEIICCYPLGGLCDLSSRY

Kd: 0.1 nM
Substance: [^125I]-[Nle^4, DPhe^7]-α-MSH (peptide)
